The record followed here is patent US20200190194A1 (GlaxoSmithKline, published 2020).

Assay [1] has as its target T1, rabbit Fc-tagged recombinant extracellular human ICOS (human, UniProt Q9Y6W8 21-140).
T1 construct: also called dimeric human ICOS; not shown: rabbit Fc tag
T1 sequence: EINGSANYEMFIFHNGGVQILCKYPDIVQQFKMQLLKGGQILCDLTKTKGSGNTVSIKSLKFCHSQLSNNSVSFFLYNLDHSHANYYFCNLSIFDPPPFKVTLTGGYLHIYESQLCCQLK
In words: SPR (Biacore), compared with human ICOS-L binding to dimeric human ICOS (FIG. 15B). On the technique in general: SPR reads the build-up and loss of mass on a sensor chip optically.

For assay [2], the target named is T2, human ICOS ligand (B7-H2) (human, UniProt O75144 19-258, limits assumed).
T2 construct: it is treated as the same molecule; also called CD275; recombinant ICOS-L (R&D Systems)
T2 sequence (looked up): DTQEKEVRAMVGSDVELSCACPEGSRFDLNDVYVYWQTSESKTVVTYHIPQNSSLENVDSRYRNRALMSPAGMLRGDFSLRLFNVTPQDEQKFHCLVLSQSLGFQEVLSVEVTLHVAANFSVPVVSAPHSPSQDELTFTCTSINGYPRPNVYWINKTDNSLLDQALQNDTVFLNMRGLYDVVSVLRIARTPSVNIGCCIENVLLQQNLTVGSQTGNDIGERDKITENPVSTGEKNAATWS
In words: flow cytometry competition: activated T cells pre-incubated with recombinant ICOS-L (B7-H2), then stained with H2L5; CD8+ cells. (In general: A flow cytometer gives signals particle by particle.)

B1: H2L5 IgG4PE (antibody, V domains shown)
VH: QVQLVQSGAEVKKPGSSVKVSCKASGYTFTDYAMHWVRQAPGQGLEWMGLISIYSDHTNYNQKFQGRVTITADKSTSTAYMELSSLRSEDTAVYYCGRNNYGNYGWYFDVWGQGTTVTVSS
VL: EIVLTQSPATLSLSPGERATLSCSASSSVSYMHWYQQKPGQAPRLLIYDTSKLASGIPARFSGSGSGTDYTLTISSLEPEDFAVYYCFQGSGYPYTFGQGTKLEIK
notes: Human IgG4 with Fc mutations S228P and L235E (EU numbering), called IgG4PE; humanized variant of murine clone 422.2; also called ICOS IgG4PE; H2L5 (ICOS) IgG4PE
With B1, the “fold higher affinity than the ICOS-L/ICOS interaction” value in assay [1] was roughly 17 fold.

B2: human ICOS on activated human T cells (receptor)
chain: EINGSANYEMFIFHNGGVQILCKYPDIVQQFKMQLLKGGQILCDLTKTKGSGNTVSIKSLKFCHSQLSNNSVSFFLYNLDHSHANYYFCNLSIFDPPPFKVTLTGGYLHIYESQLCCQLKFWLPIGCAAFVVVCILGCILICWLTKKKYSSSVHDPNGEYMFMRAVNTAKKSRLTDVTL
notes: the isoform 1 entry is named; also called cell surface ICOS; ICOS+ T cells (CD4, CD8, Treg)
As for B2, the binding result in assay [2] is on record as “binds”.
